Test results: patent US20250236679A1 (Chugai, published 2025)

T1: human DLL3-Fc (human)
T1 construct: also called soluble DLL3 protein
T1 chain: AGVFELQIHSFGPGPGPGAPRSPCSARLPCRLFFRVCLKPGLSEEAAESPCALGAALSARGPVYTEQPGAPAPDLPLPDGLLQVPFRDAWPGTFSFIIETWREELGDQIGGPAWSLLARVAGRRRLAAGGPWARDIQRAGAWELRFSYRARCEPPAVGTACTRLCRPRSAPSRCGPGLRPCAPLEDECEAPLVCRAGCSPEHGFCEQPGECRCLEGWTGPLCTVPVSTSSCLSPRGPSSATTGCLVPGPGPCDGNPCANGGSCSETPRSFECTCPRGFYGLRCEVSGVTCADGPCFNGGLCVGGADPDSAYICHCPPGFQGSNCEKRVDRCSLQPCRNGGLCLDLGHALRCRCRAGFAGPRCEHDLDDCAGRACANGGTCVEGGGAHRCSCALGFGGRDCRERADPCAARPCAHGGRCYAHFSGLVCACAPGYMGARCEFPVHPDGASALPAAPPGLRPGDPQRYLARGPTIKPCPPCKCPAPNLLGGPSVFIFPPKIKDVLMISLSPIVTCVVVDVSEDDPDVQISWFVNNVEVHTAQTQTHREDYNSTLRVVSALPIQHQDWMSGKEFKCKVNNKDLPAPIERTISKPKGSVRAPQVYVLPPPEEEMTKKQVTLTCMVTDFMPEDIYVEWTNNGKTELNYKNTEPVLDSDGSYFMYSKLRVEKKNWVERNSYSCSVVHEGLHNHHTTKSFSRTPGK

T2: human DLL3 expressed on cells (human DLL3/BaF3) (human, UniProt Q9NYJ7 27-618)
T2 construct: Full-length human DLL3 on the membrane of transformed Ba/F3 cells; The ADCC assays also used NCI-H1184 small-cell lung cancer cells that express DLL3; also called Delta-like 3; NM_016941
T2 sequence: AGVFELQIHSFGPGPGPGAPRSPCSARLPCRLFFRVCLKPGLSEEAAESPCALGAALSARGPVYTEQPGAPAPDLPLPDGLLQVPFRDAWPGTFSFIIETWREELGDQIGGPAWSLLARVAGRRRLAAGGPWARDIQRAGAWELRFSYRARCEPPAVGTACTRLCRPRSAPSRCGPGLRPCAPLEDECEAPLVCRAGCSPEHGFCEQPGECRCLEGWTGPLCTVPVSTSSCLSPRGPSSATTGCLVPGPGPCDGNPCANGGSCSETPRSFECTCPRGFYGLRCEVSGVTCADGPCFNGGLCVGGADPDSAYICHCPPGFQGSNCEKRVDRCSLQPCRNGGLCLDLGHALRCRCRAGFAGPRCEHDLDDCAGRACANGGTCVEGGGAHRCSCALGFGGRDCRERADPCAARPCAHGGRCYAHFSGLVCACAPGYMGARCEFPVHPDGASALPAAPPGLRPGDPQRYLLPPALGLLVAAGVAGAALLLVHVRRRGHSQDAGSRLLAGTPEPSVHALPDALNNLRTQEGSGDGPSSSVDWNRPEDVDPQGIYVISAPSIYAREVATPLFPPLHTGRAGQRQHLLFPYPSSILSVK


What was measured:
[1] = molecular target: T1, human DLL3-Fc; test: ELISA, immobilized human DLL3-Fc
Method: The competition of a chimeric antibody and a mouse antibody for binding to the antigen molecule was analyzed by ELISA (FIG. 8 (b)). Human DLL3-Fc was added at 10 ng/well to a Nunc immunoplate and immobilized thereon. A mixture (final concentration: 50 ng/ml) of the chimeric antibody and the appropriately diluted mouse antibody was added to the DLL3-Fc protein-immobilized plate. The plate was incubated at room temperature for 1 hour and then washed. Alkaline phosphatase-labeled anti-human antibodies were added thereto and incubated. After the incubation, Sigma 104 was added thereto, and the absorbance was measured. The binding of the chimeric antibody to the antigen molecule competed with that of the original mouse monoclonal antibody thereto.

[2] = molecular target: T2, human DLL3 expressed on cells (human …); test: flow cytometry on human DLL3/BaF3 cells, chimeric antibody 1 µg/ml
Method: The chimeric antibody in the culture supernatant of COS-7 was confirmed to bind to the human DLL3 protein by flow cytometry and ELISA. The chimeric antibody concentration in the culture supernatant of COS-7 was calculated by sandwich ELISA. In this concentration calculation, a human chimeric antibody known for its concentration was used as a standard. The chimeric antibody (final concentration: 1 μg/ml) was added to human DLL3/BaF3 cells suspended in a FACS buffer (PBS containing 1% fetal bovine serum). After incubation at 4° C. for 30 minutes and washing, the cells were reacted with FITC-labeled anti-human antibodies (Beckman Coulter, Inc.), and the binding of the chimeric antibody was analyzed using a flow cytometer FACSCalibur. […] None of the chimeric antibodies bound to Ba/F3 cells, which were a parental line of the forced expressing cells. Human DLL3-Fc was immobilized on a Nunc immunoplate, and the binding of each chimeric antibody to the immobilized protein was analyzed. For detecting antigen-bound chimeric antibodies, the chimeric antibody was added thereto, and alkaline phosphatase-labeled anti-human antibodies (Biosource, AHI0305) and an alkaline phosphatase substrate Sigma 104 were then added in this order. The absorbance was determined. The DL301, DL309, and DL312 chimeric antibodies bound to human DLL3-Fc in a dose-dependent manner (FIG. 8(a)).
COS-7 cells were transfected with the DL306 chimeric antibody expression vector and allowed to transiently express the chimeric antibody. The chimeric antibody in the culture supernatant of COS-7 was confirmed to bind to the human DLL3 protein by flow cytometry. The chimeric antibody concentration in the culture supernatant of COS-7 was calculated by sandwich ELISA. In this concentration calculation, a human chimeric antibody known for its concentration was used as a standard. […] After incubation at 4° C. for 30 minutes and washing, the cells were reacted with FITC-labeled anti-human antibodies (Beckman Coulter, Inc.), and the binding of the chimeric antibody was analyzed using a flow cytometer FACSCalibur.

binding result [1] | binding result [2] | Binder
binds | binds | DL301 human chimeric antibody (antibody, human IgG1, kappa, Mouse variable regions with human IgG1 constant regions; also called chimeric antibody DL301; DL301 chimeric antibody) heavy: not shown light: DIKMTQSPSSMYASLGERVTITCKASQDINSYLIWFQQKPGKSPKTLIYRTNRLVDGVPSRFSGSGSGQDYSLTISSLEYGDMGIYYCLQYDEFPFTFGSGTKLEIKRTVAAPSVFIFPPSDEQLKSGTASVVCLLNNFYPREAKVQWKVDNALQSGNSQESVTEQDSKDSTYSLSSTLTLSKADYEKHKVYACEVTHQGLSSPVTKSFNRGEC
binds | binds | DL312 human chimeric antibody (antibody, human IgG1, kappa, Mouse variable regions with human IgG1 constant regions; also called chimeric antibody DL312; DL312 chimeric antibody) heavy: not shown light: DIQMTQSPSSLSASLGERVSLTCRASQEISDYLSWLQQKPDGTIKRLIFAASTLDSGVPKRFSGSRSGSDFSLSISSLESEDFADYYCLQYASYPYTFGSGTKLEIKRTVAAPSVFIFPPSDEQLKSGTASVVCLLNNFYPREAKVQWKVDNALQSGNSQESVTEQDSKDSTYSLSSTLTLSKADYEKHKVYACEVTHQGLSSPVTKSFNRGEC
binds | binds | DL309 human chimeric antibody (antibody, human IgG1, kappa, Mouse variable regions with human IgG1 constant regions; also called chimeric antibody DL309; DL309 chimeric antibody) heavy: not shown light: DIVMTQSQKFMSTSVGDRVSVTCKASQNVGTNVAWYQQKPGQSPKALIYSASYRYSGVPDRFTGSGSGTDFTLTISNVQSEDLAEYFCQQYNNYPLTFGAGTKLELKRTVAAPSVFIFPPSDEQLKSGTASVVCLLNNFYPREAKVQWKVDNALQSGNSQESVTEQDSKDSTYSLSSTLTLSKADYEKHKVYACEVTHQGLSSPVTKSFNRGEC
